Source: paper PMC10786891, “Massively parallel profiling of RNA-targeting CRISPR-Cas13d”

Biological target: T1, EsCas13d, nuclease-dead (Eubacterium siraeum, UniProt B0MS50, R295A;H300A;R849A;H854A)
T1 sequence: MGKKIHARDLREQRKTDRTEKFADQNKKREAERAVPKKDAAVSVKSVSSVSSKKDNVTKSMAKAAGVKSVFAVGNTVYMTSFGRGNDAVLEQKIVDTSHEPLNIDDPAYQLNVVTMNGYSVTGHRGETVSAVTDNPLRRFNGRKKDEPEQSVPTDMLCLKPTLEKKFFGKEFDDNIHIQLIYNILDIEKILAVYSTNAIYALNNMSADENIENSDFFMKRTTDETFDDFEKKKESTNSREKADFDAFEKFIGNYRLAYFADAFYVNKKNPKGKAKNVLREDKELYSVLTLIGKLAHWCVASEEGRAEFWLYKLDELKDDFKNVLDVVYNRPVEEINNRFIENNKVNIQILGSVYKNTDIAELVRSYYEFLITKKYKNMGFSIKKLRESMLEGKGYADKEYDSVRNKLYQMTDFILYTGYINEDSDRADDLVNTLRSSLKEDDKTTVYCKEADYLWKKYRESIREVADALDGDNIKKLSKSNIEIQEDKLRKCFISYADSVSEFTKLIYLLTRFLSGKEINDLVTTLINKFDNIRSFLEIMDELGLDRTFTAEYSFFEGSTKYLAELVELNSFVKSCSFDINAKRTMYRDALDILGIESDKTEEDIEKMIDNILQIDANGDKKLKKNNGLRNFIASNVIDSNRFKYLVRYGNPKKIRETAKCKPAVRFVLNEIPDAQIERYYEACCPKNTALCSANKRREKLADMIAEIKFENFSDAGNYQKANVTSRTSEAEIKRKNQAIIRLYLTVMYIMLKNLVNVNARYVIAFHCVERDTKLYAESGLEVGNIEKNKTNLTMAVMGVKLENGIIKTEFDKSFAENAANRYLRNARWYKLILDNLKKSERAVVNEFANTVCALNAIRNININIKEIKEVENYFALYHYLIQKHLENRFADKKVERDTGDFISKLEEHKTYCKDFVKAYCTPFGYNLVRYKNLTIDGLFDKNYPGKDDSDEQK
Assay: crRNA (strand 1, pre-loaded); Mg2+; 40 mM Tris-HCl pH 7.5, 150 mM NaCl, 6 mM MgCl2, 1 mM DTT, 0.1% Tween-20, 0.2 mg/ml BSA; 25 C; 10 min per concentration, then washed
Settings: tags: His6-TwinStrep-SUMO cleaved; N-terminal SNAP kept (SNAP-Surface 488); label: 3' end held by stalled T7 RNA polymerase

B1: target 1 MT 5'PFS UCA 3'PFS AAG (mixed)
RNA 1: CACCCGUGCAAAAAUGCAGGGGUCUAAAACUGAGCGGAUAACCUCUCUAUGG
RNA 2: GGGAAUGGAUCCACAUCUACGAAUUCUCACCAUAGAGAGGUUAUCCGCUCAAAGAGAUCGGAAGAGCACACGU
  Kd: ~70 nM

B2: target 1 MT 5'PFS GGC 3'PFS AAC (mixed)
RNA 1: CACCCGUGCAAAAAUGCAGGGGUCUAAAACUGAGCGGAUAACCUCUCUAUGG
RNA 2: GGGAAUGGAUCCACAUCUACGAAUUCGGCCCAUAGAGAGGUUAUCCGCUCAAACAGAUCGGAAGAGCACACGU
  Kd: 39 ± 13.5 nM

B3: target 1 MT 5'PFS AGA 3'PFS AUA (mixed)
RNA 1: CACCCGUGCAAAAAUGCAGGGGUCUAAAACUGAGCGGAUAACCUCUCUAUGG
RNA 2: GGGAAUGGAUCCACAUCUACGAAUUCAGACCAUAGAGAGGUUAUCCGCUCAAUAAGAUCGGAAGAGCACACGU
  Kd: 45 ± 15 nM

B4: target 1 MT 5'PFS AGG 3'PFS AGC (mixed)
RNA 1: CACCCGUGCAAAAAUGCAGGGGUCUAAAACUGAGCGGAUAACCUCUCUAUGG
RNA 2: GGGAAUGGAUCCACAUCUACGAAUUCAGGCCAUAGAGAGGUUAUCCGCUCAAGCAGAUCGGAAGAGCACACGU
  Kd: ~52 nM

B5: target 1 MT 5'PFS AGG 3'PFS AGG (mixed)
RNA 1: CACCCGUGCAAAAAUGCAGGGGUCUAAAACUGAGCGGAUAACCUCUCUAUGG
RNA 2: GGGAAUGGAUCCACAUCUACGAAUUCAGGCCAUAGAGAGGUUAUCCGCUCAAGGAGAUCGGAAGAGCACACGU
  Kd: ~110 nM

B6: target 1 MT 5'PFS AAG 3'PFS CGA (mixed)
RNA 1: CACCCGUGCAAAAAUGCAGGGGUCUAAAACUGAGCGGAUAACCUCUCUAUGG
RNA 2: GGGAAUGGAUCCACAUCUACGAAUUCAAGCCAUAGAGAGGUUAUCCGCUCACGAAGAUCGGAAGAGCACACGU
  Kd: 38 ± 16 nM

B7: target 1 MT 5'PFS ACA 3'PFS UUA (mixed)
RNA 1: CACCCGUGCAAAAAUGCAGGGGUCUAAAACUGAGCGGAUAACCUCUCUAUGG
RNA 2: GGGAAUGGAUCCACAUCUACGAAUUCACACCAUAGAGAGGUUAUCCGCUCAUUAAGAUCGGAAGAGCACACGU
  Kd: 8.85 ± 2.9 nM

B8: target 1 MT 5'PFS AGU 3'PFS AAG (mixed)
RNA 1: CACCCGUGCAAAAAUGCAGGGGUCUAAAACUGAGCGGAUAACCUCUCUAUGG
RNA 2: GGGAAUGGAUCCACAUCUACGAAUUCAGUCCAUAGAGAGGUUAUCCGCUCAAAGAGAUCGGAAGAGCACACGU
  Kd: 55 ± 24 nM

B9: target 1 MT 5'PFS GUA 3'PFS UGG (mixed)
RNA 1: CACCCGUGCAAAAAUGCAGGGGUCUAAAACUGAGCGGAUAACCUCUCUAUGG
RNA 2: GGGAAUGGAUCCACAUCUACGAAUUCGUACCAUAGAGAGGUUAUCCGCUCAUGGAGAUCGGAAGAGCACACGU
  Kd: 58.5 ± 7.5 nM

B10: target 1 MT 5'PFS GUA 3'PFS UGC (mixed)
RNA 1: CACCCGUGCAAAAAUGCAGGGGUCUAAAACUGAGCGGAUAACCUCUCUAUGG
RNA 2: GGGAAUGGAUCCACAUCUACGAAUUCGUACCAUAGAGAGGUUAUCCGCUCAUGCAGAUCGGAAGAGCACACGU
  Kd: 5.68 ± 0.46 nM

B11: target 1 MT 5'PFS AGU 3'PFS AAC (mixed)
RNA 1: CACCCGUGCAAAAAUGCAGGGGUCUAAAACUGAGCGGAUAACCUCUCUAUGG
RNA 2: GGGAAUGGAUCCACAUCUACGAAUUCAGUCCAUAGAGAGGUUAUCCGCUCAAACAGAUCGGAAGAGCACACGU
  Kd: 49 ± 16 nM

B12: target 1 MT 5'PFS CUU 3'PFS CUC (mixed)
RNA 1: CACCCGUGCAAAAAUGCAGGGGUCUAAAACUGAGCGGAUAACCUCUCUAUGG
RNA 2: GGGAAUGGAUCCACAUCUACGAAUUCCUUCCAUAGAGAGGUUAUCCGCUCACUCAGAUCGGAAGAGCACACGU
  Kd: ~15 nM

B13: target 1 MT 5'PFS AAG 3'PFS CGG (mixed)
RNA 1: CACCCGUGCAAAAAUGCAGGGGUCUAAAACUGAGCGGAUAACCUCUCUAUGG
RNA 2: GGGAAUGGAUCCACAUCUACGAAUUCAAGCCAUAGAGAGGUUAUCCGCUCACGGAGAUCGGAAGAGCACACGU
  Kd: 41 ± 12.5 nM

B14: target 1 MT 5'PFS GUA 3'PFS UGA (mixed)
RNA 1: CACCCGUGCAAAAAUGCAGGGGUCUAAAACUGAGCGGAUAACCUCUCUAUGG
RNA 2: GGGAAUGGAUCCACAUCUACGAAUUCGUACCAUAGAGAGGUUAUCCGCUCAUGAAGAUCGGAAGAGCACACGU
  Kd: 11.2 ± 0.65 nM

B15: target 1 A9U,U11A (mixed)
RNA 1: CACCCGUGCAAAAAUGCAGGGGUCUAAAACUGAGCGGAUAACCUCUCUAUGG
RNA 2: GGGAAUGGAUCCACAUCUACGAAUUCGUACCAUAGAGAGGAUUUCCGCUCACCGAGAUCGGAAGAGCACACGU
  Kd: 23.4 ± 1.1 nM

B16: target 1 insU 3' of 22,insC 3' of 22 (mixed)
RNA 1: CACCCGUGCAAAAAUGCAGGGGUCUAAAACUGAGCGGAUAACCUCUCUAUGG
RNA 2: GGGAAUGGAUCCACAUCUACGAAUUCGUACUCCAUAGAGAGGUUAUCCGCUCACCGAGAUCGGAAGAGCACACGU
  Kd: 31.6 ± 1.2 nM

B17: target 1 MT 5'PFS AUG 3'PFS CUC (mixed)
RNA 1: CACCCGUGCAAAAAUGCAGGGGUCUAAAACUGAGCGGAUAACCUCUCUAUGG
RNA 2: GGGAAUGGAUCCACAUCUACGAAUUCAUGCCAUAGAGAGGUUAUCCGCUCACUCAGAUCGGAAGAGCACACGU
  Kd: 21.1 ± 5.75 nM

B18: target 1 MT 5'PFS CUU 3'PFS CUA (mixed)
RNA 1: CACCCGUGCAAAAAUGCAGGGGUCUAAAACUGAGCGGAUAACCUCUCUAUGG
RNA 2: GGGAAUGGAUCCACAUCUACGAAUUCCUUCCAUAGAGAGGUUAUCCGCUCACUAAGAUCGGAAGAGCACACGU
  Kd: 29.5 ± 12.5 nM

B19: target 1 MT 5'PFS ACA 3'PFS UUC (mixed)
RNA 1: CACCCGUGCAAAAAUGCAGGGGUCUAAAACUGAGCGGAUAACCUCUCUAUGG
RNA 2: GGGAAUGGAUCCACAUCUACGAAUUCACACCAUAGAGAGGUUAUCCGCUCAUUCAGAUCGGAAGAGCACACGU
  Kd: 12.7 ± 4.2 nM

B20: target 1 MT 5'PFS AGU 3'PFS AAA (mixed)
RNA 1: CACCCGUGCAAAAAUGCAGGGGUCUAAAACUGAGCGGAUAACCUCUCUAUGG
RNA 2: GGGAAUGGAUCCACAUCUACGAAUUCAGUCCAUAGAGAGGUUAUCCGCUCAAAAAGAUCGGAAGAGCACACGU
  Kd: ~100 nM

B21: target 1 MT 5'PFS ACA 3'PFS UUU (mixed)
RNA 1: CACCCGUGCAAAAAUGCAGGGGUCUAAAACUGAGCGGAUAACCUCUCUAUGG
RNA 2: GGGAAUGGAUCCACAUCUACGAAUUCACACCAUAGAGAGGUUAUCCGCUCAUUUAGAUCGGAAGAGCACACGU
  Kd: 5.35 ± 1.15 nM

B22: target 1 MT 5'PFS GGU 3'PFS CUA (mixed)
RNA 1: CACCCGUGCAAAAAUGCAGGGGUCUAAAACUGAGCGGAUAACCUCUCUAUGG
RNA 2: GGGAAUGGAUCCACAUCUACGAAUUCGGUCCAUAGAGAGGUUAUCCGCUCACUAAGAUCGGAAGAGCACACGU
  Kd: 64.5 ± 27.5 nM

B23: target 1 MT 5'PFS AGA 3'PFS AUC (mixed)
RNA 1: CACCCGUGCAAAAAUGCAGGGGUCUAAAACUGAGCGGAUAACCUCUCUAUGG
RNA 2: GGGAAUGGAUCCACAUCUACGAAUUCAGACCAUAGAGAGGUUAUCCGCUCAAUCAGAUCGGAAGAGCACACGU
  Kd: 49 ± 17 nM

B24: target 1 MT 5'PFS UCA 3'PFS AAU (mixed)
RNA 1: CACCCGUGCAAAAAUGCAGGGGUCUAAAACUGAGCGGAUAACCUCUCUAUGG
RNA 2: GGGAAUGGAUCCACAUCUACGAAUUCUCACCAUAGAGAGGUUAUCCGCUCAAAUAGAUCGGAAGAGCACACGU
  Kd: 19.2 ± 6.35 nM

B25: target 1 MT 5'PFS CUU 3'PFS CUG (mixed)
RNA 1: CACCCGUGCAAAAAUGCAGGGGUCUAAAACUGAGCGGAUAACCUCUCUAUGG
RNA 2: GGGAAUGGAUCCACAUCUACGAAUUCCUUCCAUAGAGAGGUUAUCCGCUCACUGAGAUCGGAAGAGCACACGU
  Kd: 41 ± 19 nM

B26: target 1 MT 5'PFS AGG 3'PFS AGA (mixed)
RNA 1: CACCCGUGCAAAAAUGCAGGGGUCUAAAACUGAGCGGAUAACCUCUCUAUGG
RNA 2: GGGAAUGGAUCCACAUCUACGAAUUCAGGCCAUAGAGAGGUUAUCCGCUCAAGAAGAUCGGAAGAGCACACGU
  Kd: 37.5 ± 8.5 nM

B27: target 1 U10A,U11G (mixed)
RNA 1: CACCCGUGCAAAAAUGCAGGGGUCUAAAACUGAGCGGAUAACCUCUCUAUGG
RNA 2: GGGAAUGGAUCCACAUCUACGAAUUCGUACCAUAGAGAGGGAAUCCGCUCACCGAGAUCGGAAGAGCACACGU
  Kd: 11.6 ± 0.5 nM

B28: target 1 MT 5'PFS UGU 3'PFS AUA (mixed)
RNA 1: CACCCGUGCAAAAAUGCAGGGGUCUAAAACUGAGCGGAUAACCUCUCUAUGG
RNA 2: GGGAAUGGAUCCACAUCUACGAAUUCUGUCCAUAGAGAGGUUAUCCGCUCAAUAAGAUCGGAAGAGCACACGU
  Kd: 62.5 ± 23 nM
